Test results: patent US11370837 (dated 2022)
Where two headings read alike, the source gives them in different places.

T1: human TIGIT on CHO cells (human, UniProt Q495A1)
T1 chain: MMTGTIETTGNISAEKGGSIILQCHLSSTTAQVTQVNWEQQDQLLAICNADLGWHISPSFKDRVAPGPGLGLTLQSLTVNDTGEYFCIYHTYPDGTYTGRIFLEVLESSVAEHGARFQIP

T2: mouse TIGIT-his (mouse, UniProt P86176)
T2 chain: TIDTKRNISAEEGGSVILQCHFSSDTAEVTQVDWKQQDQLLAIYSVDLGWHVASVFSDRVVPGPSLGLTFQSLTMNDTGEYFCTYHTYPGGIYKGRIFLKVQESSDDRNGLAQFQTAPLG

T3: human TIGIT-his (human, UniProt Q495A1)
T3 chain: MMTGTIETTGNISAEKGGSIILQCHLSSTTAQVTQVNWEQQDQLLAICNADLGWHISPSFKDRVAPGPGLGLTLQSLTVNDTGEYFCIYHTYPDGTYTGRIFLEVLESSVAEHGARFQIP

T4: human TIGIT-Fc (human, UniProt Q495A1)
T4 chain: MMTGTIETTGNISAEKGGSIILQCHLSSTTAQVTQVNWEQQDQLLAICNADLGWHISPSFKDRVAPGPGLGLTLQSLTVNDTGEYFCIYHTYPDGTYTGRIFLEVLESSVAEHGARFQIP

B1: ADI-30302 (antibody, V domains shown)
VH: QLQLQESGPGLVKPSETLSLTCTVSGGSIGSSQYYWGWIRQPPGKGLEWIGSIYRSGGTYYNPSLKSRVTISVDTSKNQFSLKLSSVTAADTAVYYCARDGLYHTPEYFQHWGQGTLVTVSS
VL: EIVLTQSPATLSLSPGERATLSCRASQSVSSYLAWYQQKPGQAPRLLIYDASNRATGIPARFSGSGSGTDFTLTISSLEPEDFAVYYCQQRFAFPYTFGGGTKVEIK
B2: ADI-30293 (antibody, V domains shown)
VH: EVQLVESGGGLVQPGGSLRLSCAASGFTFSSYSMNWVRQAPGKGLEWVSYISSSGTINYADSVKGRFTISRDNAKNSLYLQMNSLRAEDTAVYYCARHRIADSPSRAFDIWGQGTMVTVSS
VL: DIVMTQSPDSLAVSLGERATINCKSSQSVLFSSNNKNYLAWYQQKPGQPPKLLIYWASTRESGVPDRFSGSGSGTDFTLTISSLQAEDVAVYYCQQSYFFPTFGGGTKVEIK
B3: ADI-27278 (antibody, V domains shown)
VH: EVQLVESGGGLVQPGGSLRLSCAASGFTFSSYSMNWVRQAPGKGLEWVSYISGSSSTIYYADSVKGRFTISRDNAKNSLYLQMNSLRAEDTAVYYCARHRIADSPSRAFDIWGQGTMVTVSS
VL: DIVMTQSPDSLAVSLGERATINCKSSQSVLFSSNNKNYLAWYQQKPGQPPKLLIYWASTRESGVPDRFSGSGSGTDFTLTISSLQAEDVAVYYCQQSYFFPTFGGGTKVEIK
B4: ADI-27243 (antibody, V domains shown)
VH: QLQLQESGPGLVKPSETLSLTCTVSGGSISSSRYYWGWIRQPPGKGLEWIGSIYYSGSTYYNPSLKSRVTISVDTSKNQFSLKLSSVTAADTAVYYCARDGLYHTPEYFQHWGQGTLVTVSS
VL: EIVLTQSPATLSLSPGERATLSCRASQSVSSYLAWYQQKPGQAPRLLIYDASNRATGIPARFSGSGSGTDFTLTISSLEPEDFAVYYCQQRFAFPYTFGGGTKVEIK
B5: ADI-30267 (antibody, V domains shown)
VH: QVQLVQSGAEVKKPGASVKVSCKASGYTFRSYYMSWVRQAPGQGLEWMGIIDPSGGRTSFAQKFQGRVTMTRDTSTSTVYMELSSLRSEDTAVYYCARARYPESWPYGMDVWGQGTTVTVSS
VL: DIQMTQSPSSLSASVGDRVTITCRASQSINSYLNWYQQKPGKAPKLLIYAASSLQSGVPSRFSGSGSGTDFTLTISSLQPEDFATYYCQQSLLTPFTFGGGTKVEIK
B6: ADI-30296 (antibody, V domains shown)
VH: EVQLVESGGGLVQPGGSLRLSCAASGFTIGGYSMNWVRQAPGKGLEWVSYISSSSTIHYADSVKGRFTISRDNAKNSLYLQMNSLRAEDTAVYYCARHRIGRSPSRAFDIWGQGTMVTVSS
VL: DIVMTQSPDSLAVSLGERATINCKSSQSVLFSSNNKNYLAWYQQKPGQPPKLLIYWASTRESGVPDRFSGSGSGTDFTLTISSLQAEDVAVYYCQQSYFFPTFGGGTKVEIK
B7: ADI-30311 (antibody, V domains shown)
VH: QLQLQESGPGLVKPSETLSLTCTVSGGSIASSVYYWGWIRQPPGKGLEWIGSIYYSGSTWYNPSLKSRVTISVDTSKNQFSLKLSSVTAADTAVYYCAREAGRTGTGLLFDYWGQGTLVTVSS
VL: DIQMTQSPSTLSASVGDRVTITCRASQSISSWLAWYQQKPGKAPKLLIYKASSLESGVPSRFSGSGSGTEFTLTISSLQPDDFATYYCQQYGILPRTFGGGTKVEIK
B8: ADI-27291 (antibody, V domains shown)
VH: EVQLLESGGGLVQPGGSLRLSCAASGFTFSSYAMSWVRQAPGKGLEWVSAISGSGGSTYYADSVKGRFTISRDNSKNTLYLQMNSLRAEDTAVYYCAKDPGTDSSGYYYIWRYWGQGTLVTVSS
VL: EIVMTQSPATLSVSPGERATLSCRASQSVSSNLAWYQQKPGQAPRLLIYSASTRATGIPARFSGSGSGTEFTLTISSLQSEDFAVYYCQQYVPHPPFTFGGGTKVEIK
B9: ADI-30288 Fab (antibody, V domains shown)
VH: EVQLLESGGGLVQPGGSLRLSCAASGFTFGPYGMSWVRQAPGKGLEWVSAISGSGASTWHADSVKGRFTISRDNSKNTLYLQMNSLRAEDTAVYYCAKDPGTDSTGYYYIWRYWGQGTLVTVSS
VL: EIVMTQSPATLSVSPGERATLSCRASQSVSSNLAWYQQKPGQAPRLLIYSASTRATGIPARFSGSGSGTEFTLTISSLQSEDFAVYYCQQYVPHPPFTFGGGTKVEIK
B10: ADI-27238 Fab (antibody, V domains shown)
VH: QVQLVQSGAEVKKPGASVKVSCKASGYTFTSYYMSWVRQAPGQGLEWMGIINPSGGSTSYAQKFQGRVTMTRDTSTSTVYMELSSLRSEDTAVYYCARARYPSSWPYGMDVWGQGTTVTVSS
VL: DIQMTQSPSSLSASVGDRVTITCRASQSINSYLNWYQQKPGKAPKLLIYAASSLQSGVPSRFSGSGSGTDFTLTISSLQPEDFATYYCQQSLLTPFTFGGGTKVEIK
B11: ADI-30311 Fab (antibody, V domains shown)
VH: QLQLQESGPGLVKPSETLSLTCTVSGGSIASSVYYWGWIRQPPGKGLEWIGSIYYSGSTWYNPSLKSRVTISVDTSKNQFSLKLSSVTAADTAVYYCAREAGRTGTGLLFDYWGQGTLVTVSS
VL: DIQMTQSPSTLSASVGDRVTITCRASQSISSWLAWYQQKPGKAPKLLIYKASSLESGVPSRFSGSGSGTEFTLTISSLQPDDFATYYCQQYGILPRTFGGGTKVEIK
B12: ADI-27301 (antibody, V domains shown)
VH: QLQLQESGPGLVKPSETLSLTCTVSGGSISSSSYYWGWIRQPPGKGLEWIGSIYYSGSTYYNPSLKSRVTISVDTSKNQFSLKLSSVTAADTAVYYCAREAGRGTTGLLFDYWGQGTLVTVSS
VL: DIQMTQSPSTLSASVGDRVTITCRASQSISSWLAWYQQKPGKAPKLLIYKASSLESGVPSRFSGSGSGTEFTLTISSLQPDDFATYYCQQYGILPRTFGGGTKVEIK
B13: ADI-30283 Fab (antibody, V domains shown)
VH: EVQLLESGGGLVQPGGSLRLSCAASGFTFSPYGMSWVRQAPGKGLEWVSSISGSGGRTYYADSVKGRFTISRDNSKNTLYLQMNSLRAEDTAVYYCAKDPGTDSSGYYYIWRYWGQGTLVTVSS
VL: EIVMTQSPATLSVSPGERATLSCRASQSVSSNLAWYQQKPGQAPRLLIYSASTRATGIPARFSGSGSGTEFTLTISSLQSEDFAVYYCQQYVPHPPFTFGGGTKVEIK
B14: ADI-30263 Fab (antibody, V domains shown)
VH: QVQLVQSGAEVKKPGASVKVSCKASGYTFLSYYMNWVRQAPGQGLEWMGIIDPSGGRTSYAQKFQGRVTMTRDTSTSTVYMELSSLRSEDTAVYYCARARYPSSWPYGTDVWGQGTTVTVSS
VL: DIQMTQSPSSLSASVGDRVTITCRASQSINSYLNWYQQKPGKAPKLLIYAASSLQSGVPSRFSGSGSGTDFTLTISSLQPEDFATYYCQQSLLTPFTFGGGTKVEIK
B15: ADI-27238 (antibody, V domains shown)
VH: QVQLVQSGAEVKKPGASVKVSCKASGYTFTSYYMSWVRQAPGQGLEWMGIINPSGGSTSYAQKFQGRVTMTRDTSTSTVYMELSSLRSEDTAVYYCARARYPSSWPYGMDVWGQGTTVTVSS
VL: DIQMTQSPSSLSASVGDRVTITCRASQSINSYLNWYQQKPGKAPKLLIYAASSLQSGVPSRFSGSGSGTDFTLTISSLQPEDFATYYCQQSLLTPFTFGGGTKVEIK
B16: ADI-30302 Fab (antibody, V domains shown)
VH: QLQLQESGPGLVKPSETLSLTCTVSGGSIGSSQYYWGWIRQPPGKGLEWIGSIYRSGGTYYNPSLKSRVTISVDTSKNQFSLKLSSVTAADTAVYYCARDGLYHTPEYFQHWGQGTLVTVSS
VL: EIVLTQSPATLSLSPGERATLSCRASQSVSSYLAWYQQKPGQAPRLLIYDASNRATGIPARFSGSGSGTDFTLTISSLEPEDFAVYYCQQRFAFPYTFGGGTKVEIK
B17: ADI-27297 Fab (antibody, V domains shown)
VH: QVQLVQSGAEVKKPGASVKVSCKASGYTFTSYYMHWVRQAPGQGLEWMGIINPSGGSTSYAQKFQGRVTMTRDTSTSTVYMELSSLRSEDTAVYYCARDHDIAAAGRLADYWGQGTLVTVSS
VL: DIQMTQSPSSVSASVGDRVTITCRASQGISSWLAWYQQKPGKAPKLLISAASSLQSGVPSRFSGSGSGTDFTLTISSLQPEDFATYYCQQAVILPITFGGGTKVEIK
B18: ADI-27297 (antibody, V domains shown)
VH: QVQLVQSGAEVKKPGASVKVSCKASGYTFTSYYMHWVRQAPGQGLEWMGIINPSGGSTSYAQKFQGRVTMTRDTSTSTVYMELSSLRSEDTAVYYCARDHDIAAAGRLADYWGQGTLVTVSS
VL: DIQMTQSPSSVSASVGDRVTITCRASQGISSWLAWYQQKPGKAPKLLISAASSLQSGVPSRFSGSGSGTDFTLTISSLQPEDFATYYCQQAVILPITFGGGTKVEIK
B19: ADI-30296 Fab (antibody, V domains shown)
VH: EVQLVESGGGLVQPGGSLRLSCAASGFTIGGYSMNWVRQAPGKGLEWVSYISSSSTIHYADSVKGRFTISRDNAKNSLYLQMNSLRAEDTAVYYCARHRIGRSPSRAFDIWGQGTMVTVSS
VL: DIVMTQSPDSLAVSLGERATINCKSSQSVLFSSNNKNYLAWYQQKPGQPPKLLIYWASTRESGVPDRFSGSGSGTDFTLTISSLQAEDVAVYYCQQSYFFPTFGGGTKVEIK
B20: ADI-30267 Fab (antibody, V domains shown)
VH: QVQLVQSGAEVKKPGASVKVSCKASGYTFRSYYMSWVRQAPGQGLEWMGIIDPSGGRTSFAQKFQGRVTMTRDTSTSTVYMELSSLRSEDTAVYYCARARYPESWPYGMDVWGQGTTVTVSS
VL: DIQMTQSPSSLSASVGDRVTITCRASQSINSYLNWYQQKPGKAPKLLIYAASSLQSGVPSRFSGSGSGTDFTLTISSLQPEDFATYYCQQSLLTPFTFGGGTKVEIK

How the values were obtained:
human TIGIT on CHO cells [1] = molecular target: T1, human TIGIT on CHO cells; experiment: FACS
human TIGIT on CHO cells [2] = molecular target: T1, human TIGIT on CHO cells; experiment: competition, CD155 blocking FACS
human TIGIT on CHO cells [3] = molecular target: T1, human TIGIT on CHO cells; experiment: FACS, CHO-expressed antibody
mouse TIGIT-his = molecular target: T2, mouse TIGIT-his; experiment: BLI
human TIGIT-his = molecular target: T3, human TIGIT-his; experiment: BLI
monkey TIGIT-his = monkey TIGIT-his (monkey); experiment: BLI
Chain of monkey TIGIT-his (monkey) (Q495A1 other isoform, or with tags, fused parts or gaps): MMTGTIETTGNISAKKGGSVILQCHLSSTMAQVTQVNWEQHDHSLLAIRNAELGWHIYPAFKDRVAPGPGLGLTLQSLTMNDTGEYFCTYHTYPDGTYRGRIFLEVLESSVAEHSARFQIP

human TIGIT on CHO cells [4] = molecular target: T1, human TIGIT on CHO cells; experiment: competition, CD155 blocking FACS
human TIGIT-Fc = molecular target: T4, human TIGIT-Fc; experiment: BLI

Binder | EC50 (human TIGIT on CHO cells [1]) | IC50 (human TIGIT on CHO cells [2]) | Kd (human TIGIT-Fc) | other results
B1 | 0.326 nM | 0.281 nM | – | –
B2 | 0.9 nM | 0.859 nM | – | EC50 (human TIGIT on CHO cells [3]): 0.229 nM; Kd (mouse TIGIT-his): 13 nM; Kd (human TIGIT-his): 0.789 nM; Kd (monkey TIGIT-his): 34.9 nM; IC50 (human TIGIT on CHO cells [4]): 0.251 nM
B3 | 0.968 nM | 0.586 nM | – | –
B4 | 0.587 nM | 0.819 nM | – | –
B5 | 0.74 nM | 0.278 nM | – | –
B6 | 0.371 nM | 0.278 nM | – | –
B7 | 0.757 nM | 0.531 nM | – | –
B8 | 0.852 nM | 1.61 nM | – | –
B9 | – | – | 0.547 nM | –
B10 | – | – | 13.8 nM | –
B11 | – | – | 0.807 nM | –
B12 | 0.899 nM | 0.641 nM | – | –
B13 | – | – | 0.553 nM | –
B14 | – | – | 0.795 nM | –
B15 | 0.751 nM | 0.418 nM | – | –
B16 | – | – | 0.329 nM | –
B17 | – | – | 32.1 nM | –
B18 | 0.496 nM | 0.603 nM | – | –
B19 | – | – | 2.43 nM | –
B20 | – | – | 1.66 nM | –
